Key:
[1] = biological target: T1, isolated rNav1.2a VSD IV paddle peptide with R1629A/L1630A substitutions and C-terminal K-linked biotin (rat); assay: SPR (Biacore T200), heterogeneous ligand model, site 1, n=3, mean±SD; site 1, high affinity KD1, n=3
[2] = biological target: T1, isolated rNav1.2a VSD IV paddle peptide …; assay: SPR (Biacore T200), heterogeneous ligand model, site 2, n=3, mean±SD; site 2, lower affinity KD2, n=3
[3] = biological target: T1, isolated rNav1.2a VSD IV paddle peptide …; assay: site 1 of heterogeneous ligand model (ka1)
[4] = biological target: T1, isolated rNav1.2a VSD IV paddle peptide …; assay: site 1 of heterogeneous ligand model (kd1)
[5] = biological target: T2, rNav1.2a/Kv2.1 VSD IV paddle chimera (WT paddle) (rat), P15387; assay: cell-based or functional assay
T2 chain: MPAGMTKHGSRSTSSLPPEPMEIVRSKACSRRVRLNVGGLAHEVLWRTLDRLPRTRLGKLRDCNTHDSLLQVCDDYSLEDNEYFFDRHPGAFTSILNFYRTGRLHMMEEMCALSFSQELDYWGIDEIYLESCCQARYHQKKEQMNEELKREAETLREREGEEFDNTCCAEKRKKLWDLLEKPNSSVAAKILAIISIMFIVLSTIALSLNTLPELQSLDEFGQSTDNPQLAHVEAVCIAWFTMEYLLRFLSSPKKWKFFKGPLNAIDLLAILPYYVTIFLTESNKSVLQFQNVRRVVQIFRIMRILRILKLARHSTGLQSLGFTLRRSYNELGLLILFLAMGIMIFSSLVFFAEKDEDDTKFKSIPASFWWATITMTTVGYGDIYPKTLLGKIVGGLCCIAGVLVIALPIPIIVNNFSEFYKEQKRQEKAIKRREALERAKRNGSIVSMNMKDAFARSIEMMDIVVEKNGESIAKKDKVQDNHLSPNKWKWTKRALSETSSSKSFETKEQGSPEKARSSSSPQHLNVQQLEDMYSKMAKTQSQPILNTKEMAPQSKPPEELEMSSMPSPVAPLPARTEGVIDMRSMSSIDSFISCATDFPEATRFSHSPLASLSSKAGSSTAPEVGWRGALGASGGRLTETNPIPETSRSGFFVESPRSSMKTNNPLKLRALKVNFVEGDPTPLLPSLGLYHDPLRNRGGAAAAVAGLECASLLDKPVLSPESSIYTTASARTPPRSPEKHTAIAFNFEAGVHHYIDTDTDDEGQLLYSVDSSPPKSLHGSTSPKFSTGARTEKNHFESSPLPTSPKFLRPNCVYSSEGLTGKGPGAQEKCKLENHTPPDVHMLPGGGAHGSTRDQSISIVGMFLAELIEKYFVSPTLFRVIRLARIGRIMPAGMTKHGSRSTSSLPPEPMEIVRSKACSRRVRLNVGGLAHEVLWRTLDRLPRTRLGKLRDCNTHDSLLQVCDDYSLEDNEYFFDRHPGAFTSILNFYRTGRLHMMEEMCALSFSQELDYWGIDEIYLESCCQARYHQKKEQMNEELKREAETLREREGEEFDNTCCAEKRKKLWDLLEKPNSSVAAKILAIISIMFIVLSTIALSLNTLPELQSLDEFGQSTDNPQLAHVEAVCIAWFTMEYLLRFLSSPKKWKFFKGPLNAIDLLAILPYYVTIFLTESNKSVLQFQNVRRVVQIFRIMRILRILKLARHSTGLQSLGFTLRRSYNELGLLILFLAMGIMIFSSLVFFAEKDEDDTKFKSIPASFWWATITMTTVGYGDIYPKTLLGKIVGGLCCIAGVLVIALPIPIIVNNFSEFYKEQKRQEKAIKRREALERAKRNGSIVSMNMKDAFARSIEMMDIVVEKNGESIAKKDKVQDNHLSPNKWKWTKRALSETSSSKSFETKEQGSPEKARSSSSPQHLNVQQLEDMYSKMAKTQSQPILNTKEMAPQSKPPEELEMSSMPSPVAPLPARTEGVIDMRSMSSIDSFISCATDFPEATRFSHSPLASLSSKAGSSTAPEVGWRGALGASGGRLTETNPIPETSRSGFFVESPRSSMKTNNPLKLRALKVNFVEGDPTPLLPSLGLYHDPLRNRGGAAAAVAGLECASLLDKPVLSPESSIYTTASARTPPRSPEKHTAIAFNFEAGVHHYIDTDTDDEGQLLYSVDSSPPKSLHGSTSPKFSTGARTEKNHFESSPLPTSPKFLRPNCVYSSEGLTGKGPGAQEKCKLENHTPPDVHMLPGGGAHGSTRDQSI

[6] = biological target: rNav1.2a/Kv2.1 VSD IV chimera containing the R1629A/L1630A substitutions (rat), P15387; assay: cell-based or functional assay
[7] = biological target: T1, isolated rNav1.2a VSD IV paddle peptide …; assay: SPR (Biacore T200), heterogeneous ligand model, site 1
[8] = biological target: T1, isolated rNav1.2a VSD IV paddle peptide …; assay: site 2 of heterogeneous ligand model (ka2)
[9] = biological target: T1, isolated rNav1.2a VSD IV paddle peptide …; assay: site 2 of heterogeneous ligand model (kd2)
[10] = biological target: T1, isolated rNav1.2a VSD IV paddle peptide …; assay: SPR (Biacore T200), heterogeneous ligand model, site 2

B1: AaHII from Androctonus australis hector, P01484 20-83 (peptide)
chain: VKDGYIVDDVNCTYFCGRNAYCNEECTKLKGESGYCQWASPYGNACYCYKLPDHVRTKGPGRCH
modifications: not checked
Kd [1]: 479 nM | Kd [2]: 747 nM | kon [3]: 2330 M⁻¹ s⁻¹ | koff [4]: 0.000979 s⁻¹ | apparent KD (from K+ current inhibition, two-electrode voltage clamp, Xenopus oocytes) [5]: 1010 nM | apparent KD (from K+ current inhibition, two-electrode voltage clamp, Xenopus oocytes) [6]: 193 nM | RUmax1 [7]: 135 RU | kon [8]: 38200 M⁻¹ s⁻¹ | koff [9]: 0.0281 s⁻¹ | RUmax2 [10]: 23 RU

Reference: patent US20180003631A1
